± gives the uncertainty stated by the source.
Experiment: self-splicing fitness, log relative to wild type (ln ratio); higher = more splicing; Tetrahymena group I intron in knt gene, E. coli kanamycin selection, DiMSum; sequences stand for … in CUCUCU…GGAGGGAAAAGUUAUCAGGCAUGCACCUGGUAGCUAGUCUUUAAACCAAUAGAUUGCAUCGGUUUAAAAGGCAAGACCGUCAAAUUGCGGGAAAGGGGUCAACAGCCGUUCAGUACCAAGUCUCAGGGGAAACUUUGAGAUGGCCUUGCAAAGGGUAUGGUAAUAAGCUGACGGACAUGGUCCUAACCACGCAGCCAAGUCCUAAGUCAACAGAUCUUCUGUUGAUAUGGAUGCAGUUCACAGACUAAAUGUCGGUCGGGGAAGAUGUAUUCUUCUCAUAAGAUAUAGUCGGACCUCUCCUUAAUGGGAGCUAGCGGAUGAAGUGAUGCAACACUGGAGCCGCUGGGAACUAAUUUGUAUGCGAAAGUAUAUUGAUUAGUUUUGGAGUACUCGUGGUCG
Procedure, shortened: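 Colonies from six replicate transformations of E. coli BL21(DE3) were pooled and amplicon-sequenced on an Illumina HiSeq 2500. The library placed an intron with all eight P1ex-region nucleotides randomised inside the knt kanamycin-resistance gene on pET-22b(+), and cells grew overnight at 37°C or 30°C on LB agar with or without 25 μg/mL kanamycin (plus 100 μg/mL carbenicillin, 50 μM IPTG, 0.2% rhamnose). Fitness is the DiMSum error-weighted combination of wild-type-normalised replicate fold changes, kanamycin versus none.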

Sequence | self-splicing fitness (ln) (30 °C) | self-splicing fitness (ln) (37 °C)
AGCGAGCAAUAUUACGAGAU | -4.2 ± 0.3 | -2.15 ± 0.19
AGCGAGCAAUAUUACGAUGA | -2.57 ± 0.44 | –
AGCGAGCAAUAUUACGCCAU | -4.12 ± 0.46 | -1.58 ± 0.18
AGCGAGCAAUAUUACGCCCU | -1.34 ± 0.35 | -0.0906 ± 0.22
AGCGAGCAAUAUUACGCCUA | -1.67 ± 0.18 | -1.89 ± 0.2
AGCGAGCAAUAUUACGCCUC | -1.82 ± 0.3 | –
AGCGAGCAAUAUUACGCGCU | -1.6 ± 0.23 | –
AGCGAGCAAUAUUACGCGUU | -3.19 ± 0.27 | -2.79 ± 0.32
AGCGAGCAAUAUUACGCUUG | -3.61 ± 0.15 | -1.69 ± 0.15
AGCGAGCAAUAUUACGGAGA | -2.52 ± 0.26 | -2.14 ± 0.3
AGCGAGCAAUAUUACGGGCA | -0.63 ± 0.061 | -0.562 ± 0.075
AGCGAGCAAUAUUACGGGGU | -3.54 ± 0.22 | -1.59 ± 0.19
AGCGAGCAAUAUUACGGUCU | -1.42 ± 0.1 | -0.715 ± 0.15
AGCGAGCAAUAUUACGGUUC | -2.18 ± 0.24 | -2.32 ± 0.3
AGCGAGCAAUAUUACGUACC | -0.987 ± 0.18 | -0.589 ± 0.19
AGCGAGCAAUAUUACGUCAU | -3.13 ± 0.21 | -1.88 ± 0.2
AGCGAGCAAUAUUACGUCGG | -3.45 ± 0.32 | -2.08 ± 0.25
AGCGAGCAAUAUUACGUGCA | -1.78 ± 0.14 | -1.21 ± 0.14
AGCUAGCAAUAUUACGAACC | -0.602 ± 0.14 | -0.082 ± 0.14
AGCUAGCAAUAUUACGAACG | -0.938 ± 0.19 | -1.61 ± 0.18
AGCUAGCAAUAUUACGAAUC | – | -1.56 ± 0.28
AGCUAGCAAUAUUACGAGGU | -2.73 ± 0.14 | -1.31 ± 0.13
AGCUAGCAAUAUUACGAUGU | -1.79 ± 0.096 | -0.235 ± 0.13
AGCUAGCAAUAUUACGCCAG | -3.78 ± 0.36 | -2.27 ± 0.35
AGCUAGCAAUAUUACGCCCU | -0.747 ± 0.13 | 0.627 ± 0.15

Sequence | self-splicing fitness (ln) (30 °C) | self-splicing fitness (ln) (37 °C)
AGCUAGCAAUAUUACGCCGA | -1.4 ± 0.4 | –
AGCUAGCAAUAUUACGCGCA | -0.216 ± 0.095 | 0.0846 ± 0.13
AGCUAGCAAUAUUACGCGGC | -3.24 ± 0.32 | -1.99 ± 0.38
AGCUAGCAAUAUUACGCUAA | -1.97 ± 0.18 | -1.21 ± 0.12
AGCUAGCAAUAUUACGCUAG | -3.02 ± 0.21 | -2.23 ± 0.22
AGCUAGCAAUAUUACGCUUC | -3.25 ± 0.3 | -2.65 ± 0.28
AGCUAGCAAUAUUACGGAGU | -2.94 ± 0.22 | -2.18 ± 0.24
AGCUAGCAAUAUUACGGAUU | -1.3 ± 0.097 | -1 ± 0.13
AGCUAGCAAUAUUACGGGGC | -3.25 ± 0.19 | -2.5 ± 0.21
AGCUAGCAAUAUUACGGGUC | -2.59 ± 0.17 | -1.7 ± 0.15
AGCUAGCAAUAUUACGGGUG | -1.04 ± 0.068 | -0.416 ± 0.087
AGCUAGCAAUAUUACGUACG | -1.85 ± 0.07 | -1.21 ± 0.081
AGCUAGCAAUAUUACGUCAC | – | -2.69 ± 0.29
AGCUAGCAAUAUUACGUCGU | -1.38 ± 0.1 | -1.4 ± 0.14
AGCUAGCAAUAUUACGUGAC | -3.94 ± 0.18 | -1.26 ± 0.13
AGCUAGCAAUAUUACGUGUC | -3.35 ± 0.18 | -1.63 ± 0.14
AGCUAGCAAUAUUACGUUUU | -2.36 ± 0.14 | -2.18 ± 0.16
AGGAAGCAAUAUUACGAACC | -0.283 ± 0.29 | -0.131 ± 0.3
AGGAAGCAAUAUUACGACAC | -1.94 ± 0.12 | -1.74 ± 0.12
AGGAAGCAAUAUUACGACUU | 0.00163 ± 0.064 | -0.239 ± 0.084
AGGAAGCAAUAUUACGAGAU | -4.23 ± 0.26 | -1.1 ± 0.13
AGGAAGCAAUAUUACGAGCA | -1.91 ± 0.17 | -1.7 ± 0.17
AGGAAGCAAUAUUACGAUAA | -1.9 ± 0.21 | -1.33 ± 0.29
AGGAAGCAAUAUUACGAUGA | -0.649 ± 0.13 | -0.773 ± 0.17
AGGAAGCAAUAUUACGCGAG | -1.55 ± 0.13 | -1.31 ± 0.15

From the supplement of paper PMC7877785
